# No end group written: not given here.
# Legend:
# [1] = molecular target: T1, mouse melanocortin-5 (mMC5) receptor (mouse); test: competition with radio-iodinated NDP-MSH on L-cells transfected with the mMC5 receptor
# T1 chain: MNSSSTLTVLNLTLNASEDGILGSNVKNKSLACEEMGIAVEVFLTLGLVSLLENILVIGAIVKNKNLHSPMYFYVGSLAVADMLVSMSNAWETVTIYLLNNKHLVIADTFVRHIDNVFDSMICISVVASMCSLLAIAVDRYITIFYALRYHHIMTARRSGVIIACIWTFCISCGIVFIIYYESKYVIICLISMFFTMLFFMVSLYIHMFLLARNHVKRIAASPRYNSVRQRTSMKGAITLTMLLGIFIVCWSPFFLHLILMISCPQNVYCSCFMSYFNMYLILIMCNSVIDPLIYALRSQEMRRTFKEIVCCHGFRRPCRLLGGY
# [2] = molecular target: human melanocortin-3 (MC3) receptor (human); test: cell-based or functional assay
# [3] = molecular target: T2, human melanocortin-1 (MC1) receptor (human); test: cell-based or functional assay
# T2 chain: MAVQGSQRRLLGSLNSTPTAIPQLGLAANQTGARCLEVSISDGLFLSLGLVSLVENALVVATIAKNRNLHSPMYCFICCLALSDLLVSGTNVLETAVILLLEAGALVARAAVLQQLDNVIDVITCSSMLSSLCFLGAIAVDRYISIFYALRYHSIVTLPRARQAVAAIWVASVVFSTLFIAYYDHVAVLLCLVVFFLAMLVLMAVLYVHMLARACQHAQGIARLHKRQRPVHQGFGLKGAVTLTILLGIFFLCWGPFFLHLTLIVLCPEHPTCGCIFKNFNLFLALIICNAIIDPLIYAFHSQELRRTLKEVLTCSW
# [4] = molecular target: human melanocortin-4 (MC4) receptor (human); test: cell-based or functional assay
# Sequence of human melanocortin-4 (MC4) receptor (human) (chain, as listed by the source): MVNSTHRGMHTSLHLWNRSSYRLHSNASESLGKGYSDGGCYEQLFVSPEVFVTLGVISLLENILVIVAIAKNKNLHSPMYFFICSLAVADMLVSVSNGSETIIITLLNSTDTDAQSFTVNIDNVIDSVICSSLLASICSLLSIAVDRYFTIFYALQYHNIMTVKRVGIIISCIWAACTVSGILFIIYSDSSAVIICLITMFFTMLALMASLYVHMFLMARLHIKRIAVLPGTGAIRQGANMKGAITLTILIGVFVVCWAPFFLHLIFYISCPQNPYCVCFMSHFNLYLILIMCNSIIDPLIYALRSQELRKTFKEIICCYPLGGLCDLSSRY
# Sequence of human melanocortin-3 (MC3) receptor (human) (chain, as listed by the source limits assumed): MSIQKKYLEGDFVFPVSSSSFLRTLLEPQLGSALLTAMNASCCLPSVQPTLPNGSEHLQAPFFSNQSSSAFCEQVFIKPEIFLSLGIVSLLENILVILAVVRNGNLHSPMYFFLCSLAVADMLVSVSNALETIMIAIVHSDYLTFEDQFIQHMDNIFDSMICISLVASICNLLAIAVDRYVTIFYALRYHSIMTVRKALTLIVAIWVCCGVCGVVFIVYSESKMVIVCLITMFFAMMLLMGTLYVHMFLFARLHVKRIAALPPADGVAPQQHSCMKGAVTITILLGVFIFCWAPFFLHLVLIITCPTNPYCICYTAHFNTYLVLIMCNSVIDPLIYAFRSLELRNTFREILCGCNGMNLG
binding result [1],ED50 of cAMP generation in transfected L-cells [2] [nM],ED50 of cAMP generation in transfected L-cells [3] [nM],EC50 of cAMP increase in transfected L-cells [4] [nM],fold greater binding affinity than ACTH (1-39) [1] [fold],Binder
binds,~1,~1,1,–,SYSMEHFRWGKPVGKKRRPVKVYPNGAEDESAEAFPLEF [human ACTH (1-39)]
–,–,–,–,~10,SYSMEHFRWGKPV [ACTH (1-13)]
–,~1,~1,–,–,Ac-SYSMEHFRWGKPV (ends and bridges not checked) [α-MSH]

# — patent publication US5703220, “Genes encoding melanocertin-4 receptor and methods of use” (The Regents Of The University Of Michigan, dated 1997)
